Assay results reported in patent US20200216532A1 (Ablynx, published 2020).

Assays:
Assay in all cases: SPR, interference factor immobilized
[1] = molecular target: T1, purified interference factor(s), Donor A
T1 construct: also called interference in serum from Donor A

[2] = molecular target: T2, purified interference factor(s), Donor B
T2 construct: also called interference in serum from Donor B

[3] = molecular target: T3, purified interference factor(s), Donor C
T3 construct: also called interference in serum from Donor C

Binder | % of binding of reference (=100%) [1] [%] | % of binding of reference (=100%) [2] [%] | % of binding of reference (=100%) [3] [%]
SEQ ID NO: 47 (VHH, Ex. 8) VHH: EVQLVESGGGLVQPGGSLRLSCAASGSVFKINVMAWYRQAPGKGRELVAGIISGGSTSYADSVKGRFTISRDNAKNTLYLQMNSLRPEDTAVYYCAFITTESDYDLGRRYWGQGTLVTVSS | 1 | – | –
SEQ ID NO: 48 (VHH, Ex. 8) VHH: EVQLVESGGGLVQPGGSLRLSCIASGLPFSTKSMGWFRQAPGKEREFVARISPGGTSRYYGDFVKGRFAISRDNAKNTTWLQMNSLKAEDTAVYYCASGERSTYIGSNYYRTNEYDYWGTGTQVTVSS | 0 | – | –
SEQ ID NO: 49 (VHH, Ex. 8; V5L, I23A, E44G, A49S, A68T, A74S, T78L, W79Y, K83R, T110Q, Q108L) VHH: EVQLLESGGGLVQPGGSLRLSCAASGLPFSTKSMGWFRQAPGKGREFVSRISPGGTSRYYGDFVKGRFTISRDNSKNTLYLQMNSLRAEDTAVYYCASGERSTYIGSNYYRTNEYDYWGQGTLVTVSS | 0 | – | –
SEQ ID NO: 43 (VHH, Ex. 8) DVQLVESGGGLVQPGGSLRLSCAASGFILDYYAIGWFRQAPGKEREGVLCIDASDDITYYADSVKGRFTISRDNSKNTVYLQMNSLRPEDTAVYYCATPIGLSSSCLLEYDYDYWGQGTLVTVSSGGGGSGGGSEVQLLESGGGLVQPGGSLRLSCAASGFTFRSFGMSWVRQAPGKGPEWVSSISGSGSDTLYADSVKGRFTISRDNSKNTLYLQMNSLRPEDTAVYYCTIGGSLSRSSQGTLVTVSSA | 3 | 20 | –
SEQ ID NO: 42 (VHH, Ex. 8) EVQLVESGGGLVQPGGSLRLSCAASGRTFSYNPMGWFRQAPGKGRELVAAISRTGGSTYYPDSVEGRFTISRDNAKRMVYLQMNSLRAEDTAVYYCAAAGVRAEDGRVRTLPSEYTFWGQGTQVTVSSAAAEVQLVESGGGLVQPGGSLRLSCAASGRTFSYNPMGWFRQAPGKGRELVAAISRTGGSTYYPDSVEGRFTISRDNAKRMVYLQMNSLRAEDTAVYYCAAAGVRAEDGRVRTLPSEYTFWGQGTQVTVSSA | 1 | 4 | –
SEQ ID NO: 45 (VHH, Ex. 8; no addition) VHH: EVQLVESGGGLVQAGGSLRLSCAASRSIGRLDRMGWYRHRTGEPRELVATITGGSSINYGDFVKGRFTISIDNAKNTVYLQMNNLKPEDTAVYYCNFNKYVTSRDTWGQGTQVTVSS | 0 | – | –
SEQ ID NO: 74 (VHH, Ex. 8) VHH: EVQLVESGGGLVQPGGSLRLSCAASRSIGRLDRMGWYRHRPGEPRELVATITGGSSINYGDSVKGRFTISIDNSKNTVYLQMNSLRPEDTAVYYCNFNKYVTSRDTWGQGTLVTVSS | 4 | 41 | 33
SEQ ID NO: 71 (VHH, Ex. 8) VHH: EVQLVESGGGLVQPGGSLRLSCAASRSIGRLDRMGWYRHRPGEPRELVATITGGSSINYGDSVKGRFTISIDNSKNTVYLQMNSLRPEDTAVYYCNFNKYVTSRDTWGQGTLVTVSG | 88 | 105 | 87
SEQ ID NO: 81 (VHH, Ex. 8) VHH: EVQLVESGGGVVQPGGSLRLSCAASRSIGRLDRMGWYRHRPGEPRELVATITGGSSINYGDSVKGRFTISIDNSKNTVYLQMNSLRPEDTAVYYCNFNKYVTSRDTWGQGTLVTVSS | 94 | 50 | 89
SEQ ID NO: 83 (VHH, Ex. 8) VHH: EVQLVESGGGLVQPGGSLRLSCAASRSIGRLDRMGWYRHRPGEPRELVATITGGSSINYGDSVKGRFTISIDNSKNTVYLQMNSLRPEDAAVYYCNFNKYVTSRDTWGQGTLVTVSS | 56 | 73 | 61
SEQ ID NO: 86 (VHH, Ex. 8) VHH: EVQLVESGGGSVQPGGSLRLSCAASRSIGRLDRMGWYRHRPGEPRELVATITGGSSINYGDSVKGRFTISIDNSKNTVYLQMNSLRPEDTAVYYCNFNKYVTSRDTWGQGTLVQVSS | 76 | 6 | 86
SEQ ID NO: 85 (VHH, Ex. 8) VHH: EVQLVESGGGSVQPGGSLRLSCAASRSIGRLDRMGWYRHRPGEPRELVATITGGSSINYGDSVKGRFTISIDNSKNTVYLQMNSLRPEDTAVYYCNFNKYVTSRDTWGQGTLVQVGG | 46 | 5 | 42
SEQ ID NO: 87 (VHH, Ex. 8) VHH: EVQLVESGGGSVQPGGSLRLSCAASRSIGRLDRMGWYRHRPGEPRELVATITGGSSINYGDSVKGRFTISIDNSKNTVYLQMNSLRPEDTAVYYCNFNKYVTSRDTWGQGTLVTVGG | 51 | 5 | 39
SEQ ID NO: 68 (VHH, Ex. 8) VHH: EVQLVESGGGLVQAGGSLRLSCAASRSIGRLDRMGWYRHRPGEPRELVATITGGSSINYGDSVKGRFTISIDNSKNTVYLQMNSLRPEDTAVYYCNFNKYVTSRDTWGQGTQVTVSS | 38 | 115 | 49
SEQ ID NO: 70 (VHH, Ex. 8) VHH: EVQLVESGGGLVQPGGSLRLSCAASRSIGRLDRMGWYRHRPGEPRELVATITGGSSINYGDSVKGRFTISIDNSKNTVYLQMNSLRPEDTAVYYCNFNKYVTSRDTWGQGTLVQVSS | 90 | 105 | 98
SEQ ID NO: 89 (VHH, Ex. 8) VHH: EVQLVESGGGSVQAGGSLRLSCAASRSIGRLDRMGWYRHRPGEPRELVATITGGSSINYGDSVKGRFTISIDNSKNTVYLQMNSLRPEDTAVYYCNFNKYVTSRDTWGQGTLVQVGG | 14 | 5 | 17
SEQ ID NO: 84 (VHH, Ex. 8) VHH: EVQLVESGGGLVQPGGSLRLSCAASRSIGRLDRMGWYRHRPGEPRELVATITGGSSINYGDSVKGRFTISIDNSKNTVYLQMNSLRPEDTAVYYCNFNKYVTSRDTWGQGTLVTVGS | 84 | 50 | 83
SEQ ID NO: 80 (VHH, Ex. 8) VHH: EVQLVESGGGLVQPGGSLRLSCAASRSIGRLDRMGWYRHRPGEPRELVATITGGSSINYGDSVKGRFTISIDNSKNTVYLQMNSLRPEDTAVYYCNFNKYVTSRDTWGQGTLVQVGG | 65 | 5 | 58
SEQ ID NO: 67 (VHH, Ex. 8) VHH: EVQLVESGGGLVQPGGSLRLSCAASRSIGRLDRMGWYRHRPGEPRELVATITGGSSINYGDSVKGRFTISIDNSKNTVYLQMNSLKPEDTAVYYCNFNKYVTSRDTWGQGTLVTVSS | 102 | 117 | 96
SEQ ID NO: 66 (VHH, Ex. 8) VHH: EVQLVESGGGSVQPGGSLRLSCAASRSIGRLDRMGWYRHRPGEPRELVATITGGSSINYGDSVKGRFTISIDNSKNTVYLQMNSLRPEDTAVYYCNFNKYVTSRDTWGQGTLVTVSS | 81 | 29 | 84
SEQ ID NO: 65 (VHH, Ex. 8) VHH: EVQLVESGGGLVQAGGSLRLSCAASRSIGRLDRMGWYRHRPGEPRELVATITGGSSINYGDSVKGRFTISIDNSKNTVYLQMNSLRPEDTAVYYCNFNKYVTSRDTWGQGTLVTVSS | 73 | 121 | 64
SEQ ID NO: 82 (VHH, Ex. 8) VHH: EVQLVESGGGLVQPGGSLRLSCAASRSIGRLDRMGWYRHRPGEPRELVATITGGSSINYGDSVKGRFTISIDNSKNTVYLQMNSLRAEDTAVYYCNFNKYVTSRDTWGQGTLVTVSS | 96 | 80 | 100
SEQ ID NO: 69 (VHH, Ex. 8) VHH: EVQLVESGGGLVQPGGSLRLSCAASRSIGRLDRMGWYRHRPGEPRELVATITGGSSINYGDSVKGRFTISIDNSKNTVYLQMNSLRPEDTAVYYCNFNKYVTSRDTWGQGTQVTVSS | 80 | 120 | 84
SEQ ID NO: 78 (VHH, Ex. 8) VHH: EVQLVESGGGLVRPGGSLRLSCAASRSIGRLDRMGWYRHRPGEPRELVATITGGSSINYGDSVKGRFTISIDNSKNTVYLQMNSLRPEDTAVYYCNFNKYVTSRDTWGQGTLVTVSS | 96 | 96 | 100
SEQ ID NO: 72 (VHH, Ex. 8) VHH: EVQLVESGGGLVQPGGSLRLSCAASRSIGRLDRMGWYRHRPGEPRELVATITGGSSINYGDSVKGRFTISIDNSKNTVYLQMNSLRPEDTAVYYCNFNKYVTSRDTWGQGTLVTVGG | 70 | 47 | 56
SEQ ID NO: 38 (VHH, Ex. 8) EVQLVESGGGLVQPGGSLRLSCAASGFTFSSYAMSWVRQAPGKGLEWVSGIKSSGDSTRYAGSVKGRFTISRDNAKNTLYLQMNSLRPEDTAVYYCAKSRVSRTGLYTYDNRGQGTLVTVSSGGGGSGGGGSGGGGSGGGGSEVQLVESGGGLVQPGGSLRLSCAASGRTFNNYAMGWFRQAPGKEREFVAAITRSGVRSGVSAIYGDSVKDRFTISRDNAKNTLYLQMNSLRPEDTAVYYCAASAIGSGALRRFEYDYSGQGTLVTVSSA | 9 | 25 | 7
